These are literature values, as cited in paper PMC7465696.

This series deals with HP1β CSD (Homo sapiens) (UniProt P83916). As to the kind of experiment: sedimentation analysis.

Bounds are passed on as bounds.

As for HP1β CSD (from UniProt P83916), the Kd was less than 150 nM.
